Reference: publication PMC12485084

Molecular target: 3xFLAG-TurboID-CaM C-lobe (human)
Assay: proximity labelling

Sequence of 3xFLAG-WT human TRPA1 (Transient Receptor Potential Ankyrin subtype 1) (O75762 whole entry): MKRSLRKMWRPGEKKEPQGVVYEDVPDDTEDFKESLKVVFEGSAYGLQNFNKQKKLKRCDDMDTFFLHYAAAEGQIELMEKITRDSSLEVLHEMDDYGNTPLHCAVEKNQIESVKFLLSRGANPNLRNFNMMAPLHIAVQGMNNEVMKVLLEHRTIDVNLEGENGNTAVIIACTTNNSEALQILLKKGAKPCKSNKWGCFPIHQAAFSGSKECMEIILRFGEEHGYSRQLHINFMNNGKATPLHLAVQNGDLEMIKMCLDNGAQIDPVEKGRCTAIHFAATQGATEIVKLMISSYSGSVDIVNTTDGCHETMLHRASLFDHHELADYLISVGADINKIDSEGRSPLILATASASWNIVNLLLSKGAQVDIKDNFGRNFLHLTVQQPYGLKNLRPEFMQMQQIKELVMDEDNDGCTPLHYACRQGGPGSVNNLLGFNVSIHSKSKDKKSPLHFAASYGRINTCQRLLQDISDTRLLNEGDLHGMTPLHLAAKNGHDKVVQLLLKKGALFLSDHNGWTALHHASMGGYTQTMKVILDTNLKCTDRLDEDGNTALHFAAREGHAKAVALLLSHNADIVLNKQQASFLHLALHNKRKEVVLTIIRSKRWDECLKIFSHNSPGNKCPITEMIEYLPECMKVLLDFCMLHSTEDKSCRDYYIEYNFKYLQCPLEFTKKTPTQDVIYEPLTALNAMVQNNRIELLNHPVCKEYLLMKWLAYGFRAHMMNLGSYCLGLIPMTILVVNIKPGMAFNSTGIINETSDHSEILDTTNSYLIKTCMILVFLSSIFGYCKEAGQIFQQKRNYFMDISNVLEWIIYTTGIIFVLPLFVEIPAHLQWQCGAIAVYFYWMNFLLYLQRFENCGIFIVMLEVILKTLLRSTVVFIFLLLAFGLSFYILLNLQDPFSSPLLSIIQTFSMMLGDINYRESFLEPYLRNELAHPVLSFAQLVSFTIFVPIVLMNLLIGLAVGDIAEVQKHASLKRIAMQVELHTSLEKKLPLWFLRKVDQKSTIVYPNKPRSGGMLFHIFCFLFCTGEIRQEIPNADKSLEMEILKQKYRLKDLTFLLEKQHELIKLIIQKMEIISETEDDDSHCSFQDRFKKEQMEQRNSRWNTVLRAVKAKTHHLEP

percent increase in biotinylation with TurboID-CaM C-lobe versus free TurboID: 40%
Substance: 3xFLAG-WT human TRPA1 (Transient Receptor Potential Ankyrin subtype 1) (from UniProt O75762 1-1119) (natural protein)
